Publication PMC10694592, “A conserved core region of the scaffold NEMO is essential for signal-induced conformational change and liquid-liquid phase separation” (The Journal of Biological Chemistry, 2023)

Target: FITC-labeled 45-mer peptide derived from the C-terminal region of IKKβ (FITC label (position not given))
Assay: fluorescence polarisation; fluorescence anisotropy binding assay with an FITC-labeled 45-mer peptide of IKKβ and bacterially expressed full-length NEMO proteins; conditions not told here (refs 13, 26)
Details: both partners purified

Kd: 0.013 ± 0.0029 µM
B1: 7XAla-NEMO (aa 1-419), bacterially expressed (natural protein)
chain: MNRHLWKSQLAEMVQPSGGPAADQDVLGEESPLGKPAMLHLPSEQGAPETLQRALEENQELRDAIRQSNQILRERAEELLHFQASQREEKEFLMAKFQEARKLVERLGLEKLDLKRQKEQALREVEHLKRAQQQMAEDKASVKAQVTSLLGELQESQSRLEAATKEAQALEGRARAASEQARQLESEREALQQQHSVQVDQLRMQGQSVEAALRMERQAASEEKRKLAQLQVAYHQLFQEYDNHIKSSVVGSERKRGMQLEDLKQQLQQAEEALVAKQEVIDKLKEEAEQHKIVMETVPVLKAQADIYKADFQAERQAREKLAEKKELLQEQLEQLQREYSKLKASAQESARIEDMRKRHVEVSQAPLPPAPAYLSSPLALPSQRRSPPEEPPDFCCPKCQYQAPDMDTLQIHVMECIE
